# Data: patent publication US5767072A (priority 1993, dated 1998)
# Where no end group is shown, it is not given here.
# Tests used:
# [1] = target: gp120 (Human immunodeficiency virus type 1 group M subtype B, UniProt P03375); assay type: binding, HIV-1
# [2] = target: T1, rgp120 (Human immunodeficiency virus type 1 group M subtype B, UniProt P03375); assay: inhibition of the binding of rCD4-HRP to rgp120 by rCD4 and CD4 peptides; parameters: species or system HIV-1; details: even at concentrations of 50 μM
# Method: The relative affinity of the CD4-peptides-OVA for rgp120 vs rCD4 was calculated by dividing the […].
# [3] = system: HIV infected cells; assay type: cell-based
# [4] = target: T1, rgp120; assay: direct ELISA binding of peptide-OVA to rgp120; parameters: species or system HIV-1
# Method: CD4-peptide (41-84)-OVA (.circle-solid.); CD4-peptide (40-57)-OVA (.smallcircle.); CD4-peptide (81-92)-OVA (.box-solid.). Control peptide-OVA and OVA (.box-solid.).
# Wells coated with rgp120 and blocked as described above were treated with various concentrations of peptide-OVA or OVA (control) in 100 μl and the plate was incubated for 2 hr at 25° C. The plates were washed and then incubated with rabbit IgG anti-OVA coupled to HRP (5 μl/ml) for 2 hr at 25° C. The binding of the labeled antibody was detected as described above. Linear regression curves were generated by plotting the absorption vs the concentration of peptide-OVA.
molecule,measurement,setting,value
GSFLTKGPSKLNDRADS [peptide 41-57],inhibition of the binding of CD4 to gp120,[1],unable to inhibit the binding of CD4 to gp120
Gln-Gly-Ser-Phe-Leu-Thr-Lys-Gly-Pro-Ser-Lys-Leu-Asn-Asp-Arg-^3 H-Ala-Asp-Ser [CD4-peptide (40-57)],inhibition of the binding of rCD4 to gp120 by free peptides,[2],did not inhibit the binding of rCD4 to gp120
TYICEVEDGKEE [CD4-peptide (81-92)],inhibition of the binding of rCD4 to gp120 by free peptides,[2],did not inhibit the binding of rCD4 to gp120
CCN(CC)CCCC(C)Nc1ccnc2cc(Cl)ccc12 (centres unmarked) [chloroquine],anticellular activity against HIV infected cells,[3],significant anticellular activity
"OVA: ovalbumin, carrier protein control (protein, UniProt P01012 2-386, looked up) Ovalbumin: GSIGAASMEFCFDVFKELKVHHANENIFYCPIAIMSALAMVYLGAKDSTRTQINKVVRFDKLPGFGDSIEAQCGTSVNVHSSLRDILNQITKPNDVYSFSLASRLYAEERYPILPEYLQCVKELYRGGLEPINFQTAADQARELINSWVESQTNGIIRNVLQPSSVDSQTAMVLVNAIVFKGLWEKAFKDEDTQAMPFRVTEQESKPVQMMYQIGLFRVASMASEKMKILELPFASGTMSMLVLLPDEVSGLEQLESIINFEKLTEWTSSNVMEERKIKVYLPRMKMEEKYNLTSVLMAMGITDVFSSSANLSGISSAESLKISQAVHAAHAEINEAGREVVGSAEAGVDAASVSEEFRADHPFLFCIKHIATNAVLFFGRCVSP",binding to gp120 in direct ELISA,[4],did not bind gp120
